# Data published in PMC10281268.
# Target: GFP-tagged Y822F vinculin (chicken), expressed in 4T1 vinculin-knockout cells (chicken) (UniProt P12003)
# Test: co-IP; GFP or GFP-tagged vinculins immunoprecipitated with GFP antibody and protein A/G agarose from lysates of 4T1 vinculin-knockout cells (EB or RIPA buffer), reducing SDS-PAGE, immunoblot for talin, paxillin or β-actin; in one panel cells pre-treated with 10 mM NAC for 1 h (paxillin with Y822C reduced, not significantly changed with wild type and Y822F)
# UniProt P12003, sequence (P12003 whole entry Y822F): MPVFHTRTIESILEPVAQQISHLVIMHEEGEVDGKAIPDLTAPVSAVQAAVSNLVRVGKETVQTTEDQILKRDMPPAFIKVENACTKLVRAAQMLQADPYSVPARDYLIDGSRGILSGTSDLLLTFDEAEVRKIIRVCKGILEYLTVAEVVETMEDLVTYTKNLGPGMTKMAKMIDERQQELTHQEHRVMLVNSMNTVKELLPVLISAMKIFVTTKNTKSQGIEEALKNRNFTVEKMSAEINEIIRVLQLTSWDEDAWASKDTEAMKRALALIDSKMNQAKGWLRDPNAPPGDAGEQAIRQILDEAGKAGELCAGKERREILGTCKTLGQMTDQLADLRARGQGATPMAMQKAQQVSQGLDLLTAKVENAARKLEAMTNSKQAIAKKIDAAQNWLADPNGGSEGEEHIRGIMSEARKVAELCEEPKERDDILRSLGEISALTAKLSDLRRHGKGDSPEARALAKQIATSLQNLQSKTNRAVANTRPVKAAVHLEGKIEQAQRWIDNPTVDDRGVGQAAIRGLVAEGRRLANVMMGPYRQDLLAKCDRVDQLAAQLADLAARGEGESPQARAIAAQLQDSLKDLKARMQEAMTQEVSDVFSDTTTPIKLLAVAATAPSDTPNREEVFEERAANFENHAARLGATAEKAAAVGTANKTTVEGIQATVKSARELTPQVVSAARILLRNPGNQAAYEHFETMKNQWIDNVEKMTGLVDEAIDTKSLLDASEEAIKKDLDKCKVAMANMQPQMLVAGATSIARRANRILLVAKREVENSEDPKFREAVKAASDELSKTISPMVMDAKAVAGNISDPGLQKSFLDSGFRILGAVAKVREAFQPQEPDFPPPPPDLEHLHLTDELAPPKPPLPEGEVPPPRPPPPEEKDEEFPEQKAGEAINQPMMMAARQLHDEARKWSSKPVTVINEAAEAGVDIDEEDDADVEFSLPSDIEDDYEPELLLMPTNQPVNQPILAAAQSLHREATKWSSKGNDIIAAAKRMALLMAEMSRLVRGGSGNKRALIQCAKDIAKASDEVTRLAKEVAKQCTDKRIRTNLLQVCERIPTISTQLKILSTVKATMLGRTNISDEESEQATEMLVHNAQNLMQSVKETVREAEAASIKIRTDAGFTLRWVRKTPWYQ
substance,measurement,value
talin (endogenous in 4T1 cells; the paper's 'talin' refers collectively to talin 1 and 2) (from UniProt P26039 1-2541) (natural protein),fold less talin recovered than with T12 vinculin,390 fold
